In article PMC9407527 (Proceedings of the National Academy of Sciences of the …, 2022):
Square brackets hold non-standard residues; d marks the D form. Ends that are not written are not given here. * marks the point of attachment. MTSL = spin label, CC1(C)C=C(CS*)C(C)(C)N1[O]; pS = N[C@@H](COP(=O)(O)O)C(=O)O

T1: fluorescent-tagged His-tagged occludin 413–522 (human, UniProt Q16625 413-522, fluorescent label from the MonolithNT His-Tag Labeling Kit (NanoTemper))
T1 sequence (looked up): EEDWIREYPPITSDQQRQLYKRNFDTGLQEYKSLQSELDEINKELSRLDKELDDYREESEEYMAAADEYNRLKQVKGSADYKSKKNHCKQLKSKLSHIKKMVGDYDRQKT

T2: occludin 413–522 α-helical bundle (NMR construct with the N-terminal extension GPLGS) (human, UniProt Q16625 413-522)
T2 sequence: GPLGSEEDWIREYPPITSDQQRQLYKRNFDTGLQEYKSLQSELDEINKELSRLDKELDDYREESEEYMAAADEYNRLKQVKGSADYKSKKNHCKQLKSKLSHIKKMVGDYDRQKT


Assays:
[1] = molecular target: T1, fluorescent-tagged His-tagged occludin …; experiment: MST
[2] = molecular target: T2, occludin 413–522 α-helical bundle (NMR …); experiment: NMR paramagnetic relaxation enhancement

| Binder | Kd [1] | binding result [2] |
| --- | --- | --- |
| AKGRAGRSKRTEQDHYETDYTTGGE[pS]CDEL [synthetic occludin 383–412 peptide phosphorylated at S408] | 37 ± 15 µM |  |
| AKGRAGRSKRTEQDHYETDYTTGGEDC(MTSL)DEL (peptide, UniProt Q16625 383-412, looked up) [occludin 383–412^S408D unstructured region peptide, MTSL-labelled at C409] |  | binds |

Further lines, results first:

| Kd [1] | binding result [2] | Binder |
| --- | --- | --- |
|  | binds | AKGRAGRSKRTEQDHYETDYTTGGEAC(MTSL)DEL (peptide, UniProt Q16625 383-412, looked up) [occludin 383–412^S408A unstructured region peptide, MTSL-labelled at C409] |
| 175 ± 27 µM |  | AKGRAGRSKRTEQDHYETDYTTGGESCDEL [synthetic occludin 383–412 peptide, nonphosphorylated] |
